Consider twelve proteins from the PETadex activity labels (doi:10.1021/acscatal.9b00568).

Numbering of substitutions follows the chain as printed.

Substrate in the series: PET
The series can be described thus: Proxy for plastic degradation [HPLC-UV]. The note with it: pH 9.

B1: unnamed (protein)
chain: MNFPRASRLMQAAVLGGLMAVSAAATAQTNPYARGPNPTAASLEASAGPFTVRSFTVSRPSGYGAGTVYYPTNAGGTVGAIAIVPGYTARQSSIKWWGPRLASHGFVVITIDTNSTLDQPSSRSSQQMAALRQVASLNGTSSSPIYGKVDTARMGVMGWSMGGGGSLISAANNPSLKAAAAQAPWDSSTNFSSVTVPTLIFACENDSIAPVNSSALPIYDSMSRNAKQFLEINGGSHSCANSGNSNQALIGKKGVAWMKRFMDNDTRYSTFACENPNSTRVSDFRTANCS
Take B1: the “Proxy for plastic degradation” value came to 4.2 µM (30 °C, 24 h); 7.8 µM (30 °C, 72 h); 7.5 µM (40 °C, 24 h); 7.6 µM (40 °C, 72 h).

B2: unnamed (protein)
chain: B1 chain with S121E, D186H
B2: the “Proxy for plastic degradation” value reads like this: (30 °C, 24 h) 10.6 µM; (30 °C, 72 h) 13.7 µM; (40 °C, 24 h) 13.9 µM; (40 °C, 72 h) 19.8 µM.

B3: unnamed (protein)
chain: B1 chain with A181P, D186H
As for B3, the “Proxy for plastic degradation” value was determined as 10.4 µM (30 °C, 24 h); 12.8 µM (30 °C, 72 h); 8.7 µM (40 °C, 24 h); 19.7 µM (40 °C, 72 h).

B4: unnamed (protein)
chain: B1 chain with A181P, D186V
Take B4: the “Proxy for plastic degradation” value runs as follows: (30 °C, 24 h) 2.4 µM; (30 °C, 72 h) 4 µM; (40 °C, 24 h) 1.9 µM; (40 °C, 72 h) 7.1 µM.

B5: unnamed (protein)
chain: B1 chain with S121D, A181P
As to B5, the “Proxy for plastic degradation” value (30 °C, 24 h) came to 5.3 µM; the “Proxy for plastic degradation” value (30 °C, 72 h) is 24.3 µM; the “Proxy for plastic degradation” value (40 °C, 24 h) is 2.6 µM; the “Proxy for plastic degradation” value (40 °C, 72 h) was 7.2 µM.

B6: unnamed (protein)
chain: B1 chain with S121E, A181P
For B6, the “Proxy for plastic degradation” value reads like this: (30 °C, 24 h) 10.8 µM; (30 °C, 72 h) 19 µM; (40 °C, 24 h) 3.6 µM; (40 °C, 72 h) 5.2 µM.

B7: unnamed (protein)
chain: B1 chain with S121D, A181P, D186H, R280A
In the case of B7, the “Proxy for plastic degradation” value (30 °C, 24 h) worked out at 22.2 µM; the “Proxy for plastic degradation” value (30 °C, 72 h) is 57.2 µM; the “Proxy for plastic degradation” value (40 °C, 24 h) is 69.8 µM; the “Proxy for plastic degradation” value (40 °C, 72 h) stood at 93.6 µM.

B8: unnamed (protein)
chain: B1 chain with A181P, D186I
With B8, the “Proxy for plastic degradation” value runs as follows: (30 °C, 24 h) 1.3 µM; (30 °C, 72 h) 2.4 µM; (40 °C, 24 h) 1.2 µM; (40 °C, 72 h) 6.9 µM.

B9: unnamed (protein)
chain: B1 chain with S121D, D186H
Regarding B9, the “Proxy for plastic degradation” value turned out to be 13.4 µM (30 °C, 24 h); 18.9 µM (30 °C, 72 h); 18 µM (40 °C, 24 h); 25.3 µM (40 °C, 72 h).

B10: unnamed (protein)
chain: B1 chain with S121E, A181P, D186H
Turning to B10, the “Proxy for plastic degradation” value stood at 18.8 µM (30 °C, 24 h); 30.5 µM (30 °C, 72 h); 38.7 µM (40 °C, 24 h); 52.2 µM (40 °C, 72 h).

B11: unnamed (protein)
chain: B1 chain with A181G
Regarding B11, the “Proxy for plastic degradation” value reads like this: (30 °C, 24 h) 2.3 µM; (30 °C, 72 h) 3.3 µM; (40 °C, 24 h) 1.2 µM; (40 °C, 72 h) 1.7 µM.

B12: unnamed (protein)
chain: B1 chain with A181S
Turning to B12, the “Proxy for plastic degradation” value runs as follows: (30 °C, 24 h) 3.5 µM; (30 °C, 72 h) 4.9 µM; (40 °C, 24 h) 1.9 µM; (40 °C, 72 h) 2.2 µM.
